From patent publication US20240075152A1

How the values were obtained:
[1] = molecular target: GCN4-p2L variant (trimeric variant of GCN4 peptide with N-terminal NTA and C-terminal His2), assembled into hexagonal 3D crystals with Zn2+; experiment: crystals dissolved with EDTA; peptide by UPLC, protein by fluorescence spectroscopy
[2] = molecular target: GCN4-p2L variant (trimeric variant of GCN4 peptide with N-terminal NTA and C-terminal His2), assembled into hexagonal 3D crystals with Zn2+; experiment: derived from the EDTA dissolution data and the hourglass volume (about 50%)

Enhanced green fluorescent protein with an N-terminal His6-tag (EGFP)
coiled-coil units for each protein guest (coiled-coil units per protein) [1]: 60 to 70 | ratio of peptide to protein cargo in the crystals (peptide : protein) [1]: 200 | coiled-coils for each protein guest within the hourglass section (coiled-coils per protein) [2]: 30 to 35
